Molecular target: EBV gH/gL heterodimer, recombinant ectodomain (Epstein-Barr virus, UniProt P03231;P03212)
Test: BLI

| Binder | binding result |
| --- | --- |
| E1D1, murine anti-gH/gL monoclonal antibody (antibody, V domains shown) VH: EVQLEQSGPELVKPGASVKMSCKASGYTFTDYVISWVKQRTGQGLEWIGEIYPESGNTYYNEKFKGEATLTADKSSNTAYMQLSRLTSEDSAVYFCAEGYAMDFWGQGTSVTVSS VL: DIVITQTPLSLPVSLGDQASISCRSSQSLLHSNGNTYLHWYLQRPGQSPKLLIYKVSNRFSGVPDRFSGSGSGTDFTLMINRVEAEDLGVYFCSQSIHVPRTFGGGTKLEIK | binds |
| AMMO1 with the first residue of the heavy chain substituted by an asparagine (antibody, V domains shown) VH: NVQLVQSGADVKKPGASVKVSCKASGYTFIHFGISWVRQAPGQGLEWMGWIDTNNGNTNYAQSLQGRVTMTTDTSTGTAYMELRSLSTDDTAVYFCARALEMGHRSGFPFDYWGQGVLVTVSP VL: SYELTQPPSVSVAPGQRATITCGGHNIGAKNVHWYQQKPGQAPVLVIQYDSDRPSGIPERFSGSNSGSTATLTISRVEAGDEADYYCQVWDSGRGHPLYVFGGGTKVTVL | binds |
